For this series, the target named is T1, DtxR (Corynebacterium glutamicum) (UniProt Q8NP95).
T1 sequence: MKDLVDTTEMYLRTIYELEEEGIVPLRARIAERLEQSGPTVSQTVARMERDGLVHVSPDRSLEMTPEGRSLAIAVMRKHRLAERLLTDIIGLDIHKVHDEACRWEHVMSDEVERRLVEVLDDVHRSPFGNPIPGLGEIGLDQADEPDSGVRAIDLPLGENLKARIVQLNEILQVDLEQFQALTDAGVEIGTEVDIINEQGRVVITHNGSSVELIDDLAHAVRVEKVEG
Description: EMSA. The note with it: EMSA: 31 nM DNA, DtxR at 0/50/200-fold (A) or 0/300/400-fold (B) excess; 50 mM Tris-HCl pH 7.5, 5 mM MgCl2 (rest of buffer not in material); 30 min, room …. For orientation: Mobility shift assays separate free from complexed probe on a gel.
As to “AACCTGGGGGTTATATAAAAAACTTCACAAAAAGGTTGCATCCGCATCAACCGAAAGATAGTGTGTGTGAGGCAAGCCTAAGTAAACTTCTTCAAGGTTCGGGCTGGTTCCTTGAAGACGG (double strand) [xerC promoter 121 bp]”, the binding result is given as “binds”.
The result for “GTGGCGCTTTGCCTGTGTTGCTTAGGCGGCGTTGAAAATGAACTACGAATGAAAAGTTCGGGAATTGTCTAATCCGTACTAAGCTGTCTACACAATGTCTACTTCAGTTACTTCACCAGC (double strand) [metH promoter 121 bp]” reads “binds”; that for “TAGTCGTATCAAAAAGTGCTCTGATCTTAACTTTGCCCTACCTAAATACATGACCCCACCACGACGGCCAGTACTAACGACAGAATCCACTAGCGAACCCATTTATTAACAAACATTGCAA (double strand) [NCgl2776 promoter 121 bp (primers named NCgl2766)]”, “binds”.
The result for “TTTGACGTGCTTTTTTAGCACGCCATTAAGCTAAAAATAAGGTTAGGGTGCGTTATGTTTTCAGGTATCAAAAGGTGCTAATGCCTTTATTGTGTTTCGCATTGTCATTTACCACATGAAG (double strand) [cepA promoter 121 bp]” reads “binds”; that for “GAGTAGTAGCAGTGGGTATTTGCAAGCCTTTGACAAGTTACTAAACCGTGCTACCGAAACCCCTCGTGTTTAAATCTAGAAGTTTAAAGGGTGAAAACAGTCCATTACTTAAGCACCAATC (double strand) [NCgl0177 promoter 121 bp]”, “no binding”.
The result for “GGACCTAAGCGTGTAAGATGGAAACGTCTGTATCGGATAAGTAGCGAGGAGTGTTCGTTAAAAGTGGCAAACACTGAACACAATTATGACGCTTCATCGATCACCATCCTTGAAGGTCTTG (double strand) [gyrB promoter 121 bp]” reads “no binding”.

Source of the values: paper PMC12327846.
